The values that follow come from patent US20110142761A1 (AbbVie / Abbott, published 2011).

For assay [1], the target named is T1, human IL-1β (human, UniProt P01584 117-269).
T1 construct: it has 153 residues and begins APVRS; also called hIL-1β; recombinant purified human IL-1β
Nature of the assay: SPR (Biacore 3000), antibody captured, human IL-1β as analyte, 25 C. The protocol: The BIACORE® assay (Biacore, Inc., Piscataway, N.J.) determines the affinity of antibodies with kinetic measurements of on-, off-rate constants. Binding of antibodies to recombinant purified human IL-1β was determined by surface plasmon resonance-based measurements with a Biacore™ 3000 instrument (Biacore™ AB, Uppsala, Sweden) using running HBS-EP (10 mM HEPES [pH 7.4], 150 mM NaCl, 3 mM EDTA, and 0.005% surfactant P20) at 25° C. All chemicals were obtained from Biacore® AB (Uppsala, Sweden) unless otherwise stated. Approximately 5,000 RU of goat anti-mouse IgG, (Fcγ), fragment specific polyclonal antibody (Pierce Biotechnology Inc, Rockford, Ill.) diluted in 10 mM sodium acetate (pH 4.5) was directly immobilized across a CM5 research grade biosensor chip using a standard amine coupling kit according to manufacturer's instructions and procedures at 25 μg/ml. Unreacted moieties on the biosensor surface were blocked with ethanolamine. Modified carboxymethyl dextran surface in flowcell 2 and 4 was used as a reaction surface. Unmodified carboxymethyl dextran without goat anti-mouse IgG in flow cell 1 and 3 was used as the reference surface. For kinetic analysis, rate equations derived from the 1:1 Langmuir binding model were fitted simultaneously to association and dissociation phases of all eight injections (using global fit analysis) with the use of Biaevaluation 4.0.1 software. Purified antibodies were diluted in HEPES-buffered saline for capture across goat anti-mouse IgG specific reaction surfaces. Mouse antibodies to be captured as a ligand (25 μg/ml) were injected over reaction matrices at a flow rate of 5 μl/minute. The association and dissociation rate constants, kₒₙ (unit M⁻¹s⁻¹) and koff (unit s⁻¹) were determined under a continuous flow rate of 25 μl/minute. Rate constants were derived by making kinetic binding measurements at ten different antigen concentrations ranging from 10-200 nM. The equilibrium dissociation constant (unit M) of the reaction between antibodies and the target antigen was then calculated from the kinetic rate constants by the following formula: KD=koff/kₒₙ. Binding is recorded as a function of time and kinetic rate constants are calculated. In this assay, on-rates as fast as 10⁶M⁻¹s⁻¹ and off-rates as slow as 10⁻⁶s⁻¹ can be measured.

The target of assay [2] is T1, human IL-1β. Nature of the assay: cell-based or functional assay.
Assay [3] addresses T1, human IL-1β. Kind of assay: ELISA; antibody captured on anti-human Fc, biotinylated human IL-1β titrated. On the procedure: To determine if anti-IL-1β mAbs bind to human IL-1β, ELISA plates (Nunc, MaxiSorp, Rochester, N.Y.) were incubated overnight at 4° C. with anti-human Fc antibody diluted in Pierce Coat buffer at 2 μg/ml (Jackson Immunoresearch, West Grove, Pa.). Plates were washed five times in washing buffer (PBS containing 0.05% Tween 20), and blocked for 1 hour at 25° C. with 200 μl per well superblock blocking buffer (Thermo scientific, #37515). Blocking buffer was removed by tapping plates, and 2 μg/ml of each antibody in PBS containing 10% superblock, 0.5% tween-20 was added to the wells at 100 μl per well and incubated at 25° C. for 1 hour. The wells were washed five times in 1×PBST, and 1 μg/ml biotinylated antigen was titrated at 1:6 serial dilutions (for a range of μg to pg in PBS containing 10% superblock, 0.05% tween 20). Each dilution of antigen was then added to the plates and incubated for 1 hour at 25° C. The wells were washed five times in 1×PBST and incubated for 1 hour at 25° C. with polyHRP streptavidin (KPL #474-3000, Gaithersburg, Md.). The wells were washed five times in 1×PBST, and 100 μl of ULTRA-TMB ELISA (Pierce, Rockford, Ill.) were added per well. Following color development the reaction was stopped with 1N HCL and absorbance at 450 nm was measured. The results are shown in Table 9, and the numerical value indicating binding of human anti-IL-1β antibodies to human IL-1β.
(In general: An ELISA detects its analyte on a solid surface through an enzyme-linked reagent.)

B1: humanized anti-human IL-1β antibody 1B12.2 (antibody, V domains shown)
VH: EVQLQESGPGLVKPSETLSLTCTVSGFSLSDYGVSWIRQPPGKGLEWLGLIWGGGDTYYNSPLKSRLTISKDNSKSQVSLKLSSVTAADTAVYYCAKQRTLWGYDLYGMDYWGQGTLVTVSS
VL: ETTVTQSPSSLSASVGDRVTITCITSTDIDVDMNWYQQKPGKPPKLLISQGNTLRPGVPSRFSSSGSGTDFTFTISSLQPEDFATYYCLQSDNLPLTFGQGTKLEIK
notes: Cloned into IgG expression vectors and made as full-length humanized antibody; also called h1B12VH.1a/h1B12VL.1b; combination 2
Consider B1, for which, in the assay with human IL-1β [1], the affinity, expressed as Kd, was 0.147 nM; the koff is 0.0009 s⁻¹; the on-rate (kon) was determined as 6.13e+06 M⁻¹ s⁻¹. Moreover, the “Potency on Human IL-1β IC50 (pM); inhibition of IL-1β-induced IL-8 production by MRC-5 cells” value with human IL-1β [2] stood at 146 pM. The EC50 in the assay with human IL-1β [3] was 0.0376 nM.

B2: humanized anti-human IL-1β antibody 1B12.3 (antibody, V domains shown)
VH: EVQLQESGPGLVKPSETLSLTCTVSGFSLSDYGVSWIRQPPGKGLEWLGLIWGGGDTYYNSPLKSRLTISKDNSKSQVSLKLSSVTAADTAVYYCAKQRTLWGYDLYGMDYWGQGTLVTVSS
VL: DTVVTQSPAFLSVTPGEKVTITCITSTDIDVDMNWYQQKPDQPPKLLISQGNTLRPGVPSRFSSSGSGTDFTFTISSLEAEDAATYYCLQSDNLPLTFGQGTKLEIK
Take B2: in the assay with human IL-1β [2], the “Potency on Human IL-1β IC50 (pM); inhibition of IL-1β-induced IL-8 production by MRC-5 cells” value came to 303 pM.

B3: humanized anti-human IL-1β antibody 1B12.6 (antibody, V domains shown)
VH: EVQLVESGGGLVQPGGSLRLSCAVSGFTLSDYGVSWIRQAPGKGLEWLGLIWGGGDTYYNSPLKSRLTISKDNSKSTVYLQMNSLRAEDTAVYYCAKQRTLWGYDLYGMDYWGQGTLVTVSS
VL: ETTVTQSPSSLSASVGDRVTITCITSTDIDVDMNWYQQKPGKPPKLLISQGNTLRPGVPSRFSSSGSGTDFTFTISSLQPEDFATYYCLQSDNLPLTFGQGTKLEIK
B3: the “Potency on Human IL-1β IC50 (pM); inhibition of IL-1β-induced IL-8 production by MRC-5 cells” value with human IL-1β [2] is 378 pM.

B4: humanized anti-human IL-1β antibody 1B12.4 (antibody, V domains shown)
VH: EVQLQESGPGLVKPSETLSLTCTVSGFSLSDYGVSWIRQPPGKGLEWLGLIWGGGDTYYNSPLKSRLTISKDNSKSQVSLKLSSVTAADTAVYYCAKQRTLWGYDLYGMDYWGQGTLVTVSS
VL: ETTVTQSPAFLSVTPGEKVTITCITSTDIDVDMNWYQQKPDQPPKLLISQGNTLRPGVPSRFSSSGSGTDFTFTISSLEAEDAATYYCLQSDNLPLTFGQGTKLEIK
notes: Cloned into IgG expression vectors and made as full-length humanized antibody; also called h1B12VH.1a/h1B12VL.2b; combination 4
Regarding B4, in the assay with human IL-1β [1], the dissociation constant (Kd) worked out at 0.161 nM, the koff amounted to 0.00097 s⁻¹ and the on-rate constant (kon) amounted to 6.01e+06 M⁻¹ s⁻¹. Moreover, the “Potency on Human IL-1β IC50 (pM); inhibition of IL-1β-induced IL-8 production by MRC-5 cells” value in the assay with human IL-1β [2] amounted to 597 pM. Also, a half-maximal effect with human IL-1β [3] (EC50) was put at 0.0378 nM.

B5: humanized anti-human IL-1β antibody 1B12.1 (antibody, V domains shown)
VH: EVQLQESGPGLVKPSETLSLTCTVSGFSLSDYGVSWIRQPPGKGLEWLGLIWGGGDTYYNSPLKSRLTISKDNSKSQVSLKLSSVTAADTAVYYCAKQRTLWGYDLYGMDYWGQGTLVTVSS
VL: DTQVTQSPSSLSASVGDRVTITCITSTDIDVDMNWYQQKPGKPPKLLISQGNTLRPGVPSRFSSSGSGTDFTFTISSLQPEDFATYYCLQSDNLPLTFGQGTKLEIK
As to B5, the “Potency on Human IL-1β IC50 (pM); inhibition of IL-1β-induced IL-8 production by MRC-5 cells” value in the assay with human IL-1β [2] was 151 pM.

B6: humanized anti-human IL-1β antibody 1B12.5 (antibody, V domains shown)
VH: EVQLVESGGGLVQPGGSLRLSCAVSGFTLSDYGVSWIRQAPGKGLEWLGLIWGGGDTYYNSPLKSRLTISKDNSKSTVYLQMNSLRAEDTAVYYCAKQRTLWGYDLYGMDYWGQGTLVTVSS
VL: DTQVTQSPSSLSASVGDRVTITCITSTDIDVDMNWYQQKPGKPPKLLISQGNTLRPGVPSRFSSSGSGTDFTFTISSLQPEDFATYYCLQSDNLPLTFGQGTKLEIK
notes: Cloned into IgG expression vectors and made as full-length humanized antibody; also called h1B12VH.2a/h1B12VL.1a; combination 5
In the assay with human IL-1β [1], B6 yielded a Kd of 0.231 nM, a koff of 0.00144 s⁻¹ and a kon of 6.24e+06 M⁻¹ s⁻¹. The “Potency on Human IL-1β IC50 (pM); inhibition of IL-1β-induced IL-8 production by MRC-5 cells” value in the assay with human IL-1β [2] was determined as 319 pM. Also, the EC50 in the assay with human IL-1β [3] worked out at 0.0488 nM.

B7: humanized anti-human IL-1β antibody 1B12.8 (antibody, V domains shown)
VH: EVQLVESGGGLVQPGGSLRLSCAVSGFTLSDYGVSWIRQAPGKGLEWLGLIWGGGDTYYNSPLKSRLTISKDNSKSTVYLQMNSLRAEDTAVYYCAKQRTLWGYDLYGMDYWGQGTLVTVSS
VL: ETTVTQSPAFLSVTPGEKVTITCITSTDIDVDMNWYQQKPDQPPKLLISQGNTLRPGVPSRFSSSGSGTDFTFTISSLEAEDAATYYCLQSDNLPLTFGQGTKLEIK
notes: Cloned into IgG expression vectors and made as full-length humanized antibody; also called h1B12VH.2a/h1B12VL.2b; combination 8
With B7, in the assay with human IL-1β [1], the Kd came to 0.23 nM, the dissociation rate constant (koff) was determined as 0.00137 s⁻¹ and the kon was found to be 5.94e+06 M⁻¹ s⁻¹. For the same molecule, in the assay with human IL-1β [2], the “Potency on Human IL-1β IC50 (pM); inhibition of IL-1β-induced IL-8 production by MRC-5 cells” value worked out at 484 pM. Besides, the EC50 with human IL-1β [3] turned out to be 0.0479 nM.

B8: humanized anti-human IL-1β antibody 1B12.7 (antibody, V domains shown)
VH: EVQLVESGGGLVQPGGSLRLSCAVSGFTLSDYGVSWIRQAPGKGLEWLGLIWGGGDTYYNSPLKSRLTISKDNSKSTVYLQMNSLRAEDTAVYYCAKQRTLWGYDLYGMDYWGQGTLVTVSS
VL: DTVVTQSPAFLSVTPGEKVTITCITSTDIDVDMNWYQQKPDQPPKLLISQGNTLRPGVPSRFSSSGSGTDFTFTISSLEAEDAATYYCLQSDNLPLTFGQGTKLEIK
notes: Cloned into IgG expression vectors and made as full-length humanized antibody; also called h1B12VH.2a/h1B12VL.2a; combination 7
In the case of B8, in the assay with human IL-1β [1], the equilibrium dissociation constant (Kd) worked out at 0.284 nM, the koff was determined as 0.00164 s⁻¹ and the kon worked out at 5.76e+06 M⁻¹ s⁻¹. Moreover, in the assay with human IL-1β [2], the “Potency on Human IL-1β IC50 (pM); inhibition of IL-1β-induced IL-8 production by MRC-5 cells” value amounted to 581 pM. In the assay with human IL-1β [3], this molecule registered an EC50 of 0.0582 nM.

Usually Kd stands for the equilibrium constant for the complex coming apart. Read a low Kd as higher affinity. As a reminder, the koff is a measure of how fast the partners let go of each other. A higher koff goes with a short-lived complex. Broadly, the kon is a measure of how fast the partners come together. For orientation: EC50 means the concentration at which the effect is half-maximal. Lower therefore signals higher potency in that assay.
